B1: mSHARPIN_(163–301) [mouse] / GST-mHOIP_(466–630) [mouse] (parent)
chain 1: SSGNFKKEELATRLSQAIAGGDEKAAAQVAAVLAQHHVALNVQLMEAWFPPGPIRLQVTVEDATSVLSSSSSAHVSLKIHPHCSIAALQDQVFSEFGFPPAVQRWVIGRCLCMPERSLASYGVSQDGDPAFLYLLSAPR
chain 2: SCGDPEKQRQDKMRKEGLQLVSMIQEGETAGASPEEVFSALQYSGTEVPLQWLRSELSYVLEMVAELAGQQDPELGAFSCQEARKAWLDRHGNLDEAVEECVRARRRKVHELQSLGFGPKEGSLQALFQHGGDVARALTELQRQRLEPFHQRLWDRDPEPTPCWD

Variants of: B1
Assay: SPR
Settings: with GST-mHOIP_(466–630) [mouse]; response read at end of injection (about 185 s); GST-mHOIP D-UBA WT immobilized with anti-GST antibody; parent: 20; read off a plot

| Variant | response [RU] |
| --- | --- |
| chain 1 L14A I18A | -20 |

— PMC6044281, “Cooperative Domain Formation by Homologous Motifs in HOIL-1L and SHARPIN Plays A Crucial Role in LUBAC Stabilization” (Cell reports, 2018)
